Measurements taken from patent publication EP4687981A2 (dated 2026).

Target: T1, human CDH11 on primary human fibroblast-like synoviocytes (FLS) (human, UniProt P55287 54-796)
T1 construct: whole, on cells; also called human FLS; human synoviocytes
T1 sequence (looked up): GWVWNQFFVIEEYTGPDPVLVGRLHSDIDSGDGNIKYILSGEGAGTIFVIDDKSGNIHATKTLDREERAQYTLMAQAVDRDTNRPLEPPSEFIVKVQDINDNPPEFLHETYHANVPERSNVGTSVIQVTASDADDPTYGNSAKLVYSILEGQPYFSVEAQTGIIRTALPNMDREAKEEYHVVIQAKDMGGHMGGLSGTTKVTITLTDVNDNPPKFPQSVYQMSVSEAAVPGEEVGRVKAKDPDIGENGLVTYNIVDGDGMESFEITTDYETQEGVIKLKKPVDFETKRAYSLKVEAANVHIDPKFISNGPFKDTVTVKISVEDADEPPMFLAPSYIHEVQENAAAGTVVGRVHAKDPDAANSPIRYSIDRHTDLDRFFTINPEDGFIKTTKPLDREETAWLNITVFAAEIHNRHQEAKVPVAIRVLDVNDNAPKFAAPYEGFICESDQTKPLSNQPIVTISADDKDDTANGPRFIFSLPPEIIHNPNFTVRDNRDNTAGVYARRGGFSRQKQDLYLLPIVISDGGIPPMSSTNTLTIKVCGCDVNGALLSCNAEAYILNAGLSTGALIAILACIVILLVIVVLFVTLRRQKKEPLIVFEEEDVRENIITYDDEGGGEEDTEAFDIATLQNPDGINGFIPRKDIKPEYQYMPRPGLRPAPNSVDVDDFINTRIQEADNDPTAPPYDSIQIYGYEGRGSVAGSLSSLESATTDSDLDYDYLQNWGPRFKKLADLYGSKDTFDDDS
Assay: flow cytometry, hybridoma supernatant on primary human FLS

binding result: binds
B1: anti-CDH11 antibody 10E1 (antibody, V domains shown)
VH: QVQLQQSGPGLVKPSQTLSLTCAISGDSVSSNSAAWNWIRQSPSRGLEWLGRTYYRSKWYNDYAVSVKSRITINPDTSKNQFSLQLNSMTPEDTAVYYCARATMVRGAFDYWGQGTLVTVSS
VL: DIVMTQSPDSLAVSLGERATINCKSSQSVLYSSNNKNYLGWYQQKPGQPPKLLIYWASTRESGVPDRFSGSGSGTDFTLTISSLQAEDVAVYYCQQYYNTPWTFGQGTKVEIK
notes: Monoclonal from a VelocImmune mouse hybridoma; It was detected with anti-mouse IgG Fc, so the constant regions are mouse; the isotype cannot be read in this copy; also called clone 10E1
